# Experimental data published in patent publication US20080166798A1 (BARNES JEWISH HOSPITAL, published 2008).
# B1: IIA NH2-propeptide synthesized without fusion to the neck/CRD domains of SP-D (other, human, UniProt P02458 26-203, looked up)
# chain: QDVQEAGSCVQDGQRYNDKDVWKPEPCRICVCDTGTVLCDDIICEDVKDCLSPEIPFGECCPICPTDLATASGQPGPKGQKGEPGDIKDIVGPKGPPGPQGPAGEQGPRGDRGDKGEKGAPGPRGRDGEPGTPGNPGPPGPPGPPGPPGLGGNFAAQMAGGFDEKAGGAQLGVMQGPM
# notes: domain: NH2-propeptide (exons 1-8); Transiently transfected CHO cells; secreted as monomers; also called control construct of full-length IIA NH2-propeptide only
# B2: mIIA-203 (other, human, UniProt P02458 26-203, looked up)
# chain: B1 chain
# notes: domain: NH2-propeptide (exons 1-8); Truncation mutant of IIA/SP-D, control
# B3: mIIA-211 (other, human;rat, UniProt P02458 26-203, looked up)
# chain: QDVQEAGSCVQDGQRYNDKDVWKPEPCRICVCDTGTVLCDDIICEDVKDCLSPEIPFGECCPICPTDLATASGQPGPKGQKGEPGDIKDIVGPKGPPGPQGPAGEQGPRGDRGDKGEKGAPGPRGRDGEPGTPGNPGPPGPPGPPGPPGLGGNFAAQMAGGFDEKAGGAQLGVMQGPMDSAALRQQ
# notes: domain: NH2-propeptide (exons 1-8);domain: first heptad repeat of the coiled-coil neck domain; Truncation mutant of IIA/SP-D; also called IIA NH2-propeptide fused to the first heptad repeat
# How the values were obtained:
# [1] = biological target: the molecule itself; assay: self-association; BS3 cross-linking, IIA Western blot
# Excerpt: Chemical crosslinking was used to examine the state of oligomerization of the IIA collagen domain.
# [2] = biological target: the molecule itself; assay: self-association; BS3 cross-linking (0-2 mM), anti-IIA immunoblot
# Protocol: J. 318:505-511 (1996)) (FIG. 8). Each mutant protein was covalently cross-linked and the presence of protein monomers, dimers or trimers was detected by immunoblotting using the anti-IIA antibody. […] The IIA NH₂-propeptide attached to the 35 amino acid stretch of the coiled-coil neck (mIIA-237) was also secreted as a non-covalent trimer. However, lower concentrations of cross-linker (0.1-0.2 mM) were sufficient for detection of mIIA-237 trimers compared to concentrations used to detect trimers of the other truncated mutant proteins (0.5-1 mM), and no dimeric intermediate was identified. Co-operativity exists between the IIA NH₂-propeptide collagen domain and the 14 amino acid sequence of the SP-D coiled-coil neck domain
# To determine the minimum sequence that can function as a trimerizing unit, mutant constructs were designed containing termination codons at specific locations within the heptad repeats of the coiled-coil. Using IIA/SP-D cDNA in pGEM-3Z as a substrate, four mutant constructs were synthesized using the QuikChangem Site-Directed Mutagenesis Kit (Stratagene, La Jolla, Calif.). The sequence of the mutant was confirmed by DNA sequencing. […] Proteins were detected by SDS-PAGE and immunolocalization of Western blots using the anti-IIA polyclonal antibody.
Protein,binding result [1],binding result [2]
B1,no binding,–
B2,–,no binding
B3,–,no binding
